# Test results as given in CN116472284A (UNIV CALIFORNIA, dated 2023).
# Experiments:
# [1] = target: T1, SARS-CoV-2 spike receptor binding domain (RBD) (SARS-CoV-2, UniProt P0DTC2 328-533); test: SPR, biotinylated RBD on CAP chip
# [2] = target: T1, SARS-CoV-2 spike receptor binding …
binder,measurement,setting,value
"Nb6 (VHH, also called AeroNab6; NbCOV6) VHH: QVQLVESGGGLVQAGGSLRLSCAASGIIFGRNAMGWYRQAPGKERELVAGITRRGSITYYADSVKGRFTISRDNAKNTVYLQMNSLKPEDTAVYYCAADPASPAPGDYWGQGTQVTVSS",Kd,[1],41 nM
same,EC50,[2],190 nM
